Data as given in the nanobody polyreactivity screen of Harvey et al. (2022).

Experiment: yeast display, Sf9 membrane polyspecificity reagent, FACS + sequencing; frameworks hold sequencing errors
Outline: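 In a synthetic yeast display library (Saccharomyces cerevisiae BJ5465), nanobody expression was induced with galactose for 36–48 hours. FACS gates were set low and high (top ~1%) using anti-HA fluorescence for expression and streptavidin fluorescence for binding of the Sf9 membrane reagent. Each polyreactivity label is drawn from the gate of origin.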

Sequence	polyreactivity (PSR sort gate)
QVQLVESGGGLVQAGVSLRLSCAASGRIFYPYVMGWYRQAPGKERELVAAISDSTGSTYYADSVKGRFTISRDNAKNTVYLQMNSLKPEDTAVYYCAAGWFYATYWRFYYWGQGTQVTVSS	low polyreactivity
QVQLVESGGGLVQAGVSLRLSCAASGRLFYRYAMGWYRQAPGKERELVAGISRGGSTNYADSVKGRFTISRDNAKNTVYLLMKSLKPEDSAVYYCAADAKRTLSYEFGYWGQGTQVTVSS	high polyreactivity
QVQLVESGGGLVQAGVSLRLSCAASGRTFEDKAMGSDRQAPGKERELVAAISSDGSTNYADSVKGRFTISRDNAKYTVYLQKYSLKPVDTAVYYCNSTVYWPYDWSTSDYWGQGTQVTVSS	low polyreactivity
QVQLVESGGGLVQAGVSLRLSCAASGRTFGHYTMGWYRQAPGKERELVARISRTGSTKYADSVKGPFTISRDNAKNTVYLQMNSLKPEDTAVYYCARVQAGGYGERVYAYHYDYWGQGTQVTVSS	high polyreactivity
QVQLVESGGGLVQAGVSLRLSCAASGRTFSYYVMGWYRQAPGKETELVAAITTRTSSTYYADSVKGRFTISRDNAKNTVYLQMNSLKPEDTAVYYCARRPRARAYNYWGQGTQVTVSS	high polyreactivity
QVQLVESGGGLVQAGVSLRLSCAASGRTFVSNAMGWYRQAPGKEREFVAAIRDSGGRTYYADSVKGRFTISRDNANNTVYLQMTSLIPEDTAVYYCATRGVSPSRPGYYWGQGTQVTVSS	high polyreactivity
QVQLVESGGGLVQAGVSLRLSCAASGRTLRRTAMGWYRQAPGTERELVAAISSIGGSTYYADSVKGRFTISRDNAKITVYLQMNSLKPEDTAVYYCAADILIYPYSYDYYWGQGTQVTVSS	high polyreactivity
QVQLVESGGGLVQAGVSLRLSCAASGSIFGRYAMGWYRQAPGKERELVAAINDDSGRTYYADSVKGRFTISRDNAKNTVYLQKNSLKPEDTAVYYCATGRQSEYDYWGQGTQVTVSS	high polyreactivity
QVQLVESGGGLVQAGVSLRLSCAASGSIFRHNAMGWYRQAPGKERELVAAINWSGGRTYYADSVKGRFTISRDNAKNTVYLHMNSLKPEDTAVYYCADPVPRSWYDYWGQGTQVTVSS	high polyreactivity
QVQLVESGGGLVQAGVSLRLSCAASGSIFYAYAMGWYRQAPGKERELVAVINSGGSTYYADSVKGRFRISSEYAKNTVYLQMNSLKPEDTAVYYCNGTQYRGKYDYPPPGRGYYYWGQGTHVTVSS	high polyreactivity
QVQLVESGGGLVQAGVSLRLSCAASGSIIWVYAMGWYRQAPGNERELVAAITSGVSTYYADSVKGRFTISRDNAKNTVYFQMNSLKPEETAVYYCAVVGGFRWIRMEYWGQGTQVTVSS	low polyreactivity
QVQLVESGGGLVQAGVSLRLSCAASGSILTINAMGLYRQAPGKERELVPAITSGGGSTYYADSVKGRFTISRDNAKNTVYLQMNSLKPEDTAVYYCNKVFVLPYKFVAWFDYWGQGTQVTVSS	low polyreactivity
QVQLVESGGGLVQAGVSLRLSCAASGSTFGRYTMGWYRQAPGKERELVAVITRGGDSTYYADSVKWRFTISRDNAKNTVYLQMNSLKPEDTAVYYCNAETNDWYYQAYLEVEYWGQGTQETVSS	low polyreactivity
QVQLVESGGGLVQAGVSLRLSCAASGSTFGWYAMGWYRQAPGKERELVAAISASGGSTYYADSVKGRFTISRDNAKNNVYLQMNSLKPEDTAVYYCAVRAWKFLTRYDYWGQGTKVTVSS	high polyreactivity
QVQLVESGGGLVQAGVSLRLSCAASGSTFTGTAMGWYIQAPGKERELVASINGSSGSTYYADSVKGRFTISRDNAKNTVYLQMNSLKPEDTAVYYCAKDSFLHFPRVGWVGLEYWGQGTQVTLSS	low polyreactivity
QVQLVESGGGLVQAGVSLRLSCAASGSTFTYNAKGWYRQEPGKEMELVAAIRSNGGSTYADSVKGRFTISRDNAKNTVYFQMNSMKPEDTAVYYCAARWRDYYRWGSRGGYGYWGQGTQVTVSS	high polyreactivity
QVQLVESGGGLVQAGVSLRLSCAASGSTFYDIAMGWYRQATGKDRELVAAISYSGASTYYADSVKGRFTISRDNAKNTVYLHINSLKPEDTAVYYCAKTFYTLYWGQGTKVTVSS	low polyreactivity
QVQLVESGGGLVQAGVSLRLSCAASGSTLYGYAMGWYRQAPGKERELVAAINTGGSTNYADSVKGRFTISRDNSKNTVYLQMNSLKPEDTAVYYCAASYSLTFWDKDDYWGQGTQVTVSS	low polyreactivity
QVQLVESGGGLVQAGVSLRLSCAASGYIIIVYTMGWYRQAPGKERELVAAISSGGITDYADSVKGRFTISRDNAKNTVYLQMNSLKPEDTAVYYWGQGTQVTVSS	low polyreactivity
QVQLVESGGGLVQAGVSLRLSCAAYGRIFGPYAMGWYRQAPGKERELVATITWRTGSTYYADSVKGRFTISRDNAKNTVYLQMNSLKPEDTAVYYCAARYGRYSKAGDYWGLGTQVTVSS	high polyreactivity
QVQLVESGGGLVQAGVSLRLSCVPPDLPSTLNVMGWYRQAPGKERELVAAITSSGGSTRYADCVKGRFTISRDNAKNTVYLQMNSLKPEDTAVYYCAASRDKYGNRVRPFDYWGQGTQVTVSS	low polyreactivity
QVQLVESGGGLVQARGSLRLSCAASGFGWYAMGWYRQAPGKEREFVAAISRGGGSTYYADSVKGRFTISRDNAKNTVYLQMNSLKQEDTAVYYCAAVYYRRISQGDTQTYYQYNYWGQGTKVTVSS	high polyreactivity

Sequence	polyreactivity (PSR sort gate)
QVQLVESGGGLVQARGSLRLSCAASGFIFSYYAMGWYRQAPGKERELVAAISSSGGTTYADSVKGRFTISRDNAKNTVYLQMNSLKPEDTAVYYCARVQYWFYKPMYYWGQGTQVTVSS	high polyreactivity
QVQLVESGGGLVQARGSLRLSCAASGFTFDQYTMGWYRQAPGKERELVAAISSSGGSTYYADSVKGRFTISRDNAKKTVYLQMNSLKPEDTAVYYCAARFLLTQRFSHDYWGQGTQVTVSS	low polyreactivity
QVQLVESGGGLVQARGSLRLSCAASGGNISYNAMGRYRQAPGKEREFVASISSSGGRTYYADSVKGRFTISRDNAKNTVYLQMNSLKPEDTAVFYCNADAQVEYGLFGQGWVTSFDYWGEGTQVTVSS	low polyreactivity
QVQLVESGGGLVQARGSLRLSCAASGIIFSTYAMGWYRQAPGKERELVAAISASGVRTYYADSVKGRFTISRDNAKNTVYLQMNSLKPEDTAVYYCAVRGYPYLRYYWGQGTQVTVSS	high polyreactivity
QVQLVESGGGLVQARGSLRLSCAASGIIFYSYAMGWYRQAPGKEREFVAAITNSDGSTYYADSVKGRFTISRDNAKNTVYLQMNSLKPEDTAVYMYYWGQGTQVTVSS	low polyreactivity
QVQLVESGGGLVQARGSLRLSCAASGLIFYGNAMGWYRQAPGKERELVAAISRRGGRTYYADSVKGRFTISRDNAKNTVYLQMNSLKPEDTAVYYCAKRYKSIPRYWSKEYDYWGQGTQVTVSS	high polyreactivity
QVQLVESGGGLVQARGSLRLSCAASGNIFYRYAMGWYRQATGKERELVAAISFSGGGTYYADSVKGRFTISRDNAKNTVYLQMNSLKPEDTAVYYCAAYRRGCYDYWGQGTQVTVSS	high polyreactivity
QVQLVESGGGLVQARGSLRLSCAASGRIFFRNAKGWYRQAPGKERELVAAITYSGGSTYYADSVKGRFTISRDNAKNTVYLQMNSLKPEDTAVYYCGAGYWFSYSRVTRYDYWGQGTQVTVSS	high polyreactivity
QVQLVESGGGLVQARGSLRLSCAASGRSFVINAMGWYRPAPGKERELVAGITSSGNTNYADSVKGRFTISRDNAKNTVYLQMNSLKPEDTAVYDCNAQVYLTWLTYWLYYPPNDYWGQGTQVTVSS	low polyreactivity
QVQLVESGGGLVQARGSLRLSCAASGRTFAIYAMGWYRPAPGKEREFVAAISWSGGDTYYADSVKGRFTISRDNAKNTVYLQMNSLKPEDTAVYYCAARDNDYEGRDLQYELDYWGQGSQVTVSS	low polyreactivity
QVQLVESGGGLVQARGSLRLSCAASGRTFVVYDMGWYRPAPGKERALVAAITWSGGSTYYADSVKGRFTSSRDTAKNTVYLQMHSLKPEDTAVYYCAAGYYYFWTYAYWGQGTQVTVSS	low polyreactivity
QVQLVESGGGLVQARGSLRLSCAASGRTVTYYAMGWYRQAPGKERELVAAISSGDSTYYADSVKGRFTISRDNAKNTVYLQMNSLKPEDTAVYYCAVDHVSRYYGYPEITYDYWGQGTQVSVSS	low polyreactivity
QVQLVESGGGLVQARGSLRLSCAASGSIFAQYAMGWYRQAPGKERELVAAITRSTGRTYYADSVKGRFTISRDNANNTVYLQMNSLKPEDTSVYYGNARQRQSKYYPYTTFTYDYWGQGTQVTVSS	high polyreactivity
QVQLVESGGGLVQARGSLRLSCAASGSIFDGNAMGWYRQAPGKERELVAAITWRGTRTYYADSVKGRFTISRDNAKNTVYLQMNSLKPEDTAVYYCNKKWYPYLEHDYWGQGTQGTVSS	high polyreactivity
QVQLVESGGGLVQARGSLRLSCAASGSIFRGYGMRRYIQAPGKERELVAAINYSGGSTYYADSVKGRFTISRDNAKNTVYLQMNSLKPEDTGVYYCNNDYYRQRGEYYYWGQGTQVTVSS	high polyreactivity
QVQLVESGGGLVQARGSLRLSCAASGSIFRKYAMGWYRQAPGKERELVAVITTDGSTNYADSVKGRFTISRDNAKNTVYLQMNSLKPEDTAVYYCNAVRSSIGTDNVYWGLGTQVTVSS	low polyreactivity
QVQLVESGGGLVQARGSLRLSCAASGSIFYPYAMGWYRQAPGKERELVAGISRSGASTYYADSVKGRFTISRDNAKNTVYLQMNSLKPEDTAVYYCAADDWTRNYWGQGTQVTVSS	low polyreactivity
QVQLVESGGGLVQARGSLRLSCAASGSTFIRYAMGWYRQAPGKERELVAAITWRGGSTYYADSVKGRFTISRDNAKNTVYLQMNSLKPEDTAVYYCAARDRDTRNYYWGQGTQGTVSS	high polyreactivity
QVQLVESGGGLVQARGSLRLSCAASGSTFSRNVMGWYRQATGKERELVAAISRGGSTNYADSVKGRFTISRDNAKNTVYLQMNSLKPEDTAVDYCAARSYGSTGPHGLKWVSYDYWGQGTQVTVSS	low polyreactivity
QVQLVESGGGLVQARGSLRLSCAASGSTSDINAMGWYRHAPGKARELVAVITDSSNTDYADSVKGRFTISRDNAKNTVYLQMNSLKPEDTAVYYCARDDATAGDYWGQGTQVTVSS	low polyreactivity
QVQLVESGGGLVQARGSLRLSCAASRLIFTWYAMRWSRHAPGKERELVAAISWSDDSTNYADSVKGRFTISRDNAKNTVYLLMNSLKPEDTAVYYCATQLDYGGRVGDADDYWGQGTQVTVSS	low polyreactivity
